Results on two molecules are retold here after article PMC6344521.

Assay [1] addresses OVX836, NP of influenza A (A/Wilson-Smith/1933) fused through its C-terminus to the oligomerization domain OVX313 (influenza A virus (strain A/Wilson-Smith/1933)). The experiment in a line: SEC. (In general: SEC sorts molecules by how far they enter the pores of the column.)
The target is the same in assay [2]. The experiment in a line: reversed-phase chromatography (RP-UHPLC).
For assay [3], the target named is T1, nucleoprotein (NP) of influenza A, prototype human isolate A/Wilson-Smith/1933 (influenza A virus (strain A/Wilson-Smith/1933)), P15682.
T1 chain: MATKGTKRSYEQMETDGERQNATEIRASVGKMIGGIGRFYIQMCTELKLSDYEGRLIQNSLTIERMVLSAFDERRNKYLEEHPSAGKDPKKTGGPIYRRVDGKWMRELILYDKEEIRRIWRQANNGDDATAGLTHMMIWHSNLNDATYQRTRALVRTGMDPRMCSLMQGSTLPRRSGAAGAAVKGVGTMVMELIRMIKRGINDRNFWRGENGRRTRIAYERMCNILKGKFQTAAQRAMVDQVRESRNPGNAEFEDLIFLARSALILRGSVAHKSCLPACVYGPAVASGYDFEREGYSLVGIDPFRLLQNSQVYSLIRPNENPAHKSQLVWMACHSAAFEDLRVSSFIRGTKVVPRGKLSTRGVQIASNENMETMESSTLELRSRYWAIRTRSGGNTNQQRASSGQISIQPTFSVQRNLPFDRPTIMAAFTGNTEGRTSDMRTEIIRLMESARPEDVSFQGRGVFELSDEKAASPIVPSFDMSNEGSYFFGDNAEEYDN
The experiment in a line: SEC. Conditions: remark: other sources report otherwise.

“OVX836, NP of influenza A (A/Wilson-Smith/1933) fused through its C-terminus to the oligomerization domain OVX313”: the stoichiometry N in assay [1] and in assay [2] was 7 in each case.

B1: nucleoprotein (NP) of influenza A, prototype human isolate A/Wilson-Smith/1933, P15682 1-498 (natural protein)
chain: T1 chain
Consider B1, for which, in assay [3], the stoichiometry N turned out to be 3.

Broadly, the stoichiometry N is a count of units in the complex or per binding partner.
